In assay [1] the target is T1, His-Avidin-FKBP (wild-type FKBP) (biotinylated).
T1 construct: also called biotinylated wild-type FKBP; biotinylated FKBP
The assay is described as follows: AlphaLISA direct binding assay: 30 nM FLAG-FRB and 30 nM biotinylated FKBP, everolimus titrated 1:3 from 600 nM (EC50 is of everolimus). The method, then:
(§1) FRB mutations were also ranked in an alternative assay format. […] All dilutions were made in 1× AlphaLISA Immunoassay buffer (PerkinElmer). Anti-Flag acceptor beads (PerkinElmer) were added at 10 ug/ml final concentration and incubated for one hour at room temperature. Streptavidin donor beads (PerkinElmer), were then added at a final concentration of 40 ug/ml and the plate was protected from light and incubated for 30 minutes at room temperature. The plate was then read on the PerkinElmer EnVision Multiplate reader equipped with the Alpha Module using excitation of 680 nm and a 570 nm Emission filter.

Assay [2] concerns the target T1, His-Avidin-FKBP (wild-type FKBP). The assay is described as follows: AlphaLISA direct binding assay, EC50 relative to wild type FLAG-FRB. As to the method: as §1
A general note: Alpha assays give light when donor and acceptor beads are brought close together.

Changes are numbered by the printed parent chain.

T1 sequence (chain, as listed by the source limits assumed): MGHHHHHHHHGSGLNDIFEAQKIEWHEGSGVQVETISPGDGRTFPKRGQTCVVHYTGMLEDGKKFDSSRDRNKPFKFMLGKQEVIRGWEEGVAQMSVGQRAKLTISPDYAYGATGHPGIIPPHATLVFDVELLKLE

B1: His-FLAG-FRB (wild-type FRB) (other)
chain: MGHHHHHHHHGSDYKDDDDKGSASRILWHEMWHEGLEEASRLYFGERNVKGMFEVLEPLHAMMERGPQTLKETSFNQAYGRDLMEAQEWCRKYMKSGNVKDLTQAWDLYYHVFRRISKTS
notes: also called wild type Flag-FRB
B1 yielded an EC50 in assay [1] of 3.9 nM.

B2: His-FLAG-FRB T2098L (other)
chain: B1 chain with T103L
notes: The entry already carries the mutation
In the case of B2, the “fold improvement over wild type FRB” value in assay [2] came to 3 fold. In addition, the EC50 in assay [1] was found to be 1.44 nM.

B3: His-FLAG-FRB E2032L (other)
chain: B1 chain with E37L
notes: as for B2
As to B3, the “fold improvement over wild type FRB” value in assay [2] lay in the range of 1.5 to 2 fold. Further, the EC50 in assay [1] turned out to be 2.15 nM.

B4: His-FLAG-FRB E2032I (other)
chain: B1 chain with E37I
notes: as for B2
Consider B4, for which the “fold improvement over wild type FRB” value in assay [2] was 1.5 to 2 fold. A half-maximal response in assay [1] (EC50) required 2.46 nM.

One may read the EC50 as the concentration needed to bring the measured effect to its halfway point. Low values mean higher potency in that assay, high ones lower potency in that assay.
